# Results taken from the supplement of paper PMC11246515.
# ± gives the standard deviation of the averaged measurements.
# Test: total protein half-life in vivo (active degradation + dilution); higher = more stable protein
# [1] = E. coli NCM3722 delta-clpP delta-lon delta-hslV, growth: N-lim chemostat, doubling time 6 h
# [2] = E. coli NCM3722 delta-clpP, growth: N-lim chemostat, doubling time 6 h
# [3] = E. coli NCM3722 delta-hslV, growth: N-lim chemostat, doubling time 6 h
# [4] = E. coli NCM3722 delta-lon, growth: N-lim chemostat, doubling time 6 h
# [5] = E. coli NCM3722 delta-smpB, growth: N-lim chemostat, doubling time 6 h
# [6] = wild type E. coli NCM3722, growth: C-lim chemostat, doubling time 3 h
# [7] = wild type E. coli NCM3722, growth: C-lim chemostat, doubling time 6 h
# [8] = wild type E. coli NCM3722, growth: C-lim chemostat, doubling time 12 h
# [9] = wild type E. coli NCM3722, growth: N-lim chemostat, doubling time 6 h
# [10] = wild type E. coli NCM3722, growth: N-lim chemostat, doubling time 12 h
# [11] = wild type E. coli NCM3722, growth: P-lim chemostat, doubling time 6 h
# [12] = wild type E. coli NCM3722, growth: P-lim chemostat, doubling time 12 h
Sequence,total protein half-life in vivo [1] [h],total protein half-life in vivo [2] [h],total protein half-life in vivo [3] [h],total protein half-life in vivo [4] [h],total protein half-life in vivo [5] [h],total protein half-life in vivo [6] [h],total protein half-life in vivo [7] [h],total protein half-life in vivo [8] [h],total protein half-life in vivo [9] [h],total protein half-life in vivo [10] [h],total protein half-life in vivo [11] [h],total protein half-life in vivo [12] [h]
MKALTARQQEVFDLIRDHISQTGMPPTRAEIAQRLGFRSPNAAEEHLKALARKGVIEIVSGASRGIRLLQEEEEGLPLVGRVAAGEPLLAQQHIEGHYQVDPSLFKPNADFLLRVSGMSMKDIGIMDGDLLAVHKTQDVRNGQVVVARIDDEVTVKRLKKQGNKVELLPENSEFKPIVVDLRQQSFTIEGLAVGVIRNGDWL [P0A7C2],3.01 ± 0.14,2.31 ± 0.15,3.18 ± 0.11,3.9 ± 0.1,3.03 ± 0.12,1.91 ± 0.16,3.21 ± 0.11,4.65 ± 0.17,3.25 ± 0.28,4.784 ± 0.043,2.68 ± 0.22,4.77 ± 0.42
MRSSAKQEELVKAFKALLKEEKFSSQGEIVAALQEQGFDNINQSKVSRMLTKFGAVRTRNAKMEMVYCLPAELGVPTTSSPLKNLVLDIDYNDAVVVIHTSPGAAQLIARLLDSLGKAEGILGTIAGDDTIFTTPANGFTVKDLYEAILELFDQEL [P0A6D0],5.74,5.76 ± 0.36,5.36 ± 0.18,6.26,6.3 ± 1.1,3.07 ± 0.25,5.2 ± 1,10.7 ± 1.8,5.26 ± 0.67,10.5,4.85 ± 0.56,11.8 ± 0.96
MPHSDELDAGNVLAVENLNIAFMQDQQKIAAVRNLSFSLQRGETLAIVGESGSGKSVTALALMRLLEQAGGLVQCDKMLLQRRSREVIELSEQNAAQMRHVRGADMAMIFQEPMTSLNPVFTVGEQIAESIRLHQNASREEAMVEAKRMLDQVRIPEAQTILSRYPHQLSGGMRQRVMIAMALSCRPAVLIADEPTTALDVTIQAQILQLIKVLQKEMSMGVIFITHDMGVVAEIADRVLVMYQGEAVETGTVEQIFHAPQHPYTRALLAAVPQLGAMKGLDYPRRFPLISLEHPAKQAPPIEQKTVVDGEPVLRVRNLVTRFPLRSGLLNRVTREVHAVEKVSFDLWPGETLSLVGESGSGKSTTGRALLRLVESQGGEIIFNGQRIDTLSPGKLQALRRDIQFIFQDPYASLDPRQTIGDSIIEPLRVHGLLPGKDAAARVAWLLERVGLLPEHAWRYPHEFSGGQRQRICIARALALNPKVIIADEAVSALDVSIRGQIINLLLDLQRDFGIAYLFISHDMAVVERISHRVAVMYLGQIVEIGPRRAVFENPQHPYTRKLLAAVPVAEPSRQRPQRVLLSDDLPSNIHLRGEEVAAVSLQCVGPGHYVAQPQSEYAFMRR,5.29 ± 0.17,3.52 ± 0.092,4 ± 0.11,4.37 ± 0.63,3.88 ± 0.28,2.37 ± 0.21,3.9527 ± 0.00027,6.1 ± 0.44,3.6 ± 0.015,7.19 ± 1.5,4.059 ± 0.034,6.87 ± 0.34
MATVPTRSGSPRQLTTKQTGDAWEAQARRWLEGKGLRFIAANVNERGGEIDLIMREGRTTIFVEVRYRRSALYGGAAASVTRSKQHKLLQTARLWLARHNGSFDTVDCRFDVVAFTGNEVEWIKDAFNDHS,6.46 ± 0.81,,2.03,,2.14,,2.97,2.89 ± 0.49,,,1.88,3.74
MPLPDFHVSEPFTLGIELEMQVVNPPGYDLSQDSSMLIDAVKNKITAGEVKHDITESMLELATDVCRDINQAAGQFSAMQKVVLQAATDHHLEICGGGTHPFQKWQRQEVCDNERYQRTLENFGYLIQQATVFGQHVHVGCASGDDAIYLLHGLSRFVPHFIALSAASPYMQGTDTRFASSRPNIFSAFPDNGPMPWVSNWQQFEALFRCLSYTTMIDSIKDLHWDIRPSPHFGTVEVRVMDTPLTLSHAVNMAGLIQATAHWLLTERPFKHQEKDYLLYKFNRFQACRYGLEGVITDPHTGDRRPLTEDTLRLLEKIAPSAHKIGASSAIEALHRQVVSGLNEAQLMRDFVADGGSLIGLVKKHCEIWAGD,4.72 ± 0.45,4.3 ± 0.47,4.35 ± 0.24,4.85 ± 0.29,4.73,,,9.5 ± 0.29,4.59,9.74,6.17 ± 1,11.6 ± 0.85
MRSIARRTAVGAALLLVMPVAVWISGWRWQPGEQSWLLKAAFWVTETVTQPWGVITHLILFGWFLWCLRFRIKAAFVLFAILAAAILVGQGVKSWIKDKVQEPRPFVIWLEKTHHIPVDEFYTLKRAERGNLVKEQLAEEKNIPQYLRSHWQKETGFAFPSGHTMFAASWALLAVGLLWPRRRTLTIAILLVWATGVMGSRLLLGMHWPRDLVVATLISWALVAVATWLAQRICGPLTPPAEENREIAQREQES [P0A924],6.18 ± 0.47,7.12 ± 0.17,7.17,5.52 ± 0.8,5.95 ± 0.56,,6.009 ± 0.045,14.4 ± 1.7,6.36 ± 0.65,11.9 ± 0.65,6.14 ± 0.54,10.7 ± 2
MFPFRRNVLAFAALLALSSPVLAGKLAIVIDDFGYRPHNENQVLAMPSAISVAVLPDSPHAREMATKAHNSGHEVLIHLPMAPLSKQPLEKNTLRPEMSSDEIERIIRSAVNNVPYAVGINNHMGSKMTSNLFGMQKVMQALERYNLYFLDSVTIGNTQAMRAAQGTGVKVIKRKVFLDDSQNEADIRVQFNRAIDLARRNGSTIAIGHPHPATVRVLQQMVYNLPPDITLVKASSLLNEPQVDTSTPPKNAVPDAPRNPFRGVKLCKPKKPIEPVYANRFFEVLSESISQSTLIVYFQHQWQGWGKQPEAAKFNASAN,5.42 ± 0.15,6.23,6.09 ± 0.91,,4.79,3.38,,11.2 ± 1.3,6.68 ± 0.97,9.34,,8.02
MNMFFRLTALAGLLAIAGQTFAVEDITRADQIPVLKEETQHATVSERVTSRFTRSHYRQFDLDQAFSAKIFDRYLNLLDYSHNVLLASDVEQFAKKKTELGDELRSGKLDVFYDLYNLAQKRRFERYQYALSVLEKPMDFTGNDTYNLDRSKAPWPKNEAELNALWDSKVKFDELSLKLTGKTDKEIRETLTRRYKFAIRRLAQTNSEDVFSLAMTAFAREIDPHTNYLSPRNTEQFNTEMSLSLEGIGAVLQMDDDYTVINSMVAGGPAAKSKAISVGDKIVGVGQTGKPMVDVIGWRLDDVVALIKGPKGSKVRLEILPAGKGTKTRTVTLTRERIRLEDRAVKMSVKTVGKEKVGVLDIPGFYVGLTDDVKVQLQKLEKQNVSSVIIDLRSNGGGALTEAVSLSGLFIPAGPIVQVRDNNGKVREDSDTDGQVFYKGPLVVLVDRFSASASEIFAAAMQDYGRALVVGEPTFGKGTVQQYRSLNRIYDQMLRPEWPALGSVQYTIQKFYRVNGGSTQRKGVTPDIIMPTGNEETETGEKFEDNALPWDSIDAATYVKSGDLTAFEPELLKEHNARIAKDPEFQNIMKDIARFNAMKDKRNIVSLNYAVREKENNEDDATRLARLNERFKREGKPELKKLDDLPKDYQEPDPYLDETVNIALDLAKLEKARPAEQPAPVK,6.08 ± 0.32,6.08 ± 0.59,6.0465 ± 0.0037,6.36 ± 0.18,5.95 ± 0.39,2.99 ± 0.082,5.66 ± 0.27,10.9 ± 1.1,6.13 ± 0.35,12.8 ± 0.28,5.879 ± 0.052,12.9 ± 1.3
